For the assay, the target named is pertussis toxin holotoxin (Bordetella pertussis, UniProt P04977 35-269; P04978 31-226; P04979 32-227; P0A3R5 43-152; P04981 36-133). As to the kind of experiment: cell-based or functional assay.

B1: 1B7 Fab (Fab)
chain: DIQMTQSPALMSASPGEKVTMTCSASSSVSFMYWYQQKPRSSPKPWIYLTSNLPSGVPARFSGSGSGTSYSLTISSMEAEDAATYYCQQWSSHPPTFGSGTKLEIKRGGGGSGGGGSGGGGSGGGGSEVQLQQSGSELVRPGASVKLSCKASGYKFTSYWMHWVKQRPGQGLEWIGNIFPGSGSTNYDEKFNSKATLTVDTSSNTAYMQLSSLTSEDSAVYYCTRWLSGAYFDYWGQGTTLTVSSASGA
As for B1, the “In Vitro Neutralization (nM), minimum protective concentration, CHO clustering assay” value stood at 42 nM.

The record behind these values is patent publication US20140193401A1 (published 2014).
